Data published in paper PMC5412928, “Engineered ligand‐based VEGFR antagonists with increased receptor binding affinity more effectively inhibit angiogenesis” (Bioengineering & Translational Medicine, 2017).
Numbering of substitutions follows the chain as printed.

B1: scVEGFmut (ligand)
chain: APMAEGGGQNHHEVVKAMDVYQRSYCHPIETLVDIFQEYPDEIEYIFKPSCVPLMRCGGCCNDAGLECVPTEESNITMQIMRIKPHQGQHIGEMSFLQHNKCECRPKKDGSTSGSGKSSEGKGAPMAEGGGQNHHEVVKFMDVYQRSYCHPIETLVDIFQEYPDEIEYAFKPSCVPLMRCGGCCNDEGLECVPTEESNITMQIMRAKPHQGQHIGEMSFLQHNKCECRPKKD
B2: scVEGFwt (ligand)
chain: B1 chain with A17F, A64E, A169I, A206I

What was measured:
VEGFR2 on HUVECs = biological target: T1, VEGFR2 on HUVECs (human (endogenous in HUVECs), UniProt P35968 20-1356); assay: flow cytometry on cells; apparent; soluble FLAG-tagged scVEGF variants titrated on 50,000 serum-starved HUVECs (bear VEGFR2 and αvβ3 integrin) in integrin binding buffer, 4°C, 4–6 hr; phycoerythrin anti-FLAG antibody; sigmoidal fit; conditions: one partner purified
T1 construct: VEGFR2, endogenous on HUVECs; HUVECs also bear αvβ3 integrin; source: endogenous, on human umbilical vein endothelial cells (HUVECs)
T1 sequence (P35968 20-1356): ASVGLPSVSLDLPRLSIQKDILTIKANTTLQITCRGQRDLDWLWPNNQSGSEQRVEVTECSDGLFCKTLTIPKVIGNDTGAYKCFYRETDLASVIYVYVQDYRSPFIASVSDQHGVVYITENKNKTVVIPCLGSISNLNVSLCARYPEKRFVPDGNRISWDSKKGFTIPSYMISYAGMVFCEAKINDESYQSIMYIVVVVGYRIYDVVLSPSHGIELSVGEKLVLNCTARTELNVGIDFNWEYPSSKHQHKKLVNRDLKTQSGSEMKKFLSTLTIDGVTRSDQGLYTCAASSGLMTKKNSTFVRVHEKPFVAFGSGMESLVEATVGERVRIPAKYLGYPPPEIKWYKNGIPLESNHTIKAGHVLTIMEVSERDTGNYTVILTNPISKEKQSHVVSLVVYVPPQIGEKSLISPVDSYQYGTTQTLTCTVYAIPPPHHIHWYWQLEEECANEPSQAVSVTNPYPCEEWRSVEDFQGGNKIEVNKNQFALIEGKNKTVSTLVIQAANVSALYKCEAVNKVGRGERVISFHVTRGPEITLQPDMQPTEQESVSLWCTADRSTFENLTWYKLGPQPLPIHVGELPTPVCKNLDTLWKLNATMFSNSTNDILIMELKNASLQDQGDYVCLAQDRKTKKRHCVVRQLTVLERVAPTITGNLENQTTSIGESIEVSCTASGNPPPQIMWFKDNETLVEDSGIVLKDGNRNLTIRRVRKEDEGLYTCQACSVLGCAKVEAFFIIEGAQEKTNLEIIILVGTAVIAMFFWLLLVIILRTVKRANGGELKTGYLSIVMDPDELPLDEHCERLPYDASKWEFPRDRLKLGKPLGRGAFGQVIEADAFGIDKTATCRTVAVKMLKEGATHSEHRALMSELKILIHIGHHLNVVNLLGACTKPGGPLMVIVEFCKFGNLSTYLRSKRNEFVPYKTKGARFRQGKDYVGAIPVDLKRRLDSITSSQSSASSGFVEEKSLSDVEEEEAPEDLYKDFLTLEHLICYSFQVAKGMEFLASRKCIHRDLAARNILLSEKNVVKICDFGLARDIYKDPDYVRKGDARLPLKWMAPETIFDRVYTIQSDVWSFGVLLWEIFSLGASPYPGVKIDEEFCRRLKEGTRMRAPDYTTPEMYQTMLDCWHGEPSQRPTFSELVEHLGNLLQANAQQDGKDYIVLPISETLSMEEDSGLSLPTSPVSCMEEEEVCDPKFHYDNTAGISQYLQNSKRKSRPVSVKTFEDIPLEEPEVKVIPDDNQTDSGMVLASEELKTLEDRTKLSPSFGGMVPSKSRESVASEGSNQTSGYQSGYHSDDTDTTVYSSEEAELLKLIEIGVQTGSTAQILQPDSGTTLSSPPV

[1] = biological target: T2, human VEGFR2 on PAE/KDR cells (human, UniProt P35968 20-1356); assay: flow cytometry on cells; soluble FLAG-tagged scVEGF variants titrated on 50,000 PAE/KDR cells in integrin binding buffer (20 mM Tris pH 7.5, 100 mM NaCl, 1 mM MgCl2, 1 mM MnCl2, 2 mM CaCl2, 1 mg/ml BSA), 4°C, 4–6 hr; phycoerythrin anti-FLAG antibody; sigmoidal fit of mean fluorescence; conditions: one partner purified
T2 construct: VEGFR2 (KDR), human, stably expressed on porcine aortic endothelial cells; also called vascular endothelial growth factor receptor 2; source: porcine aortic endothelial (PAE) cells stably transfected to express human VEGFR2 (PAE/KDR cells), on cells
T2 sequence (P35968 20-1356): as above

| Binder | fold tighter binding of scVEGFmE7I than of scVEGFmut (VEGFR2 on HUVECs) [fold] | Kd [1] [nM] | Kd (VEGFR2 on HUVECs) [nM] |
| --- | --- | --- | --- |
| B1 | ≥ 330 | 27 | – |
| B2 | – | – | 3.8 |
